Results published in FireProtDB (doi:10.1016/0022-2836(92)90560-7).

B1: Ribonuclease, P00648 (parent)
chain: MMKMEGIALKKRLSWISVCLLVLVSAAGMLFSTAAKTETSSHKAHTEAQVINTFDGVADYLQTYHKLPDNYITKSEAQALGWVASKGNLADVAPGKSIGGDIFSNREGKLPGKSGRTWREADINYTSGFRNSDRILYSSDWLIYKTTDHYQTFTKIR

Variants of: B1
Settings: Bacillus amyloliquefaciens, 25 °C, Urea, Fluorescence, MES/Tris 150 mM/150 mM/, NaCl 1 M, structure 1BNI, whole UniProt chain shown

**Q.** What does the source list for H65G W141L?
**A.** denaturant m value (pH 9): 1.8 kcal/mol/M; denaturant midpoint (higher = more stable) (pH 9): 4.96 M; unfolding free energy (pH 9): 9.72 kcal/mol

**Q.** Which “ddG of mutation (higher = less stable)” value (pH 5.8) does the source give for H65G here?
**A.** 0.98 kcal/mol

**Q.** And the denaturant m value (pH 5.8)?
**A.** 1.85 kcal/mol/M

**Q.** What about the “denaturant midpoint (higher = more stable)” value (from here on “denaturant midpoint”) (pH 5.8) of the same variant?
**A.** 5.12 M

**Q.** And the unfolding free energy (pH 5.8)?
**A.** 10 kcal/mol

**Q.** What about the “ddG of mutation (higher = less stable)” value (pH 9) of the same variant?
**A.** -0.51 kcal/mol

**Q.** And the denaturant m value (pH 9)?
**A.** 2.07 kcal/mol/M

**Q.** What about the “denaturant midpoint” value (pH 9) of the same variant?
**A.** 5.06 M

**Q.** And the unfolding free energy (pH 9)?
**A.** 9.92 kcal/mol

**Q.** Which “ddG of mutation (higher = less stable)” value (pH 5.8) does the source give for W141F here?
**A.** 1.06 kcal/mol

**Q.** And the denaturant m value (pH 5.8)?
**A.** 1.89 kcal/mol/M

**Q.** What about the “denaturant midpoint” value (pH 5.8) of the same variant?
**A.** 5.07 M

**Q.** And the unfolding free energy (pH 5.8)?
**A.** 9.94 kcal/mol

**Q.** What about the “ddG of mutation (higher = less stable)” value (pH 9) of the same variant?
**A.** 0.6 kcal/mol

**Q.** And the denaturant m value (pH 9)?
**A.** 2.01 kcal/mol/M

**Q.** And the “denaturant midpoint” value (pH 9)?
**A.** 4.5 M

**Q.** And the unfolding free energy (pH 9)?
**A.** 8.81 kcal/mol

**Q.** With W141L as the variant, how does the “ddG of mutation (higher = less stable)” value (pH 5.8) read?
**A.** 1.59 kcal/mol

**Q.** What about the denaturant m value (pH 5.8) of the same variant?
**A.** 2 kcal/mol/M

**Q.** What about the “denaturant midpoint” value (pH 5.8) of the same variant?
**A.** 4.8 M

**Q.** And the unfolding free energy (pH 5.8)?
**A.** 9.41 kcal/mol

**Q.** And the “ddG of mutation (higher = less stable)” value (pH 9)?
**A.** 0.66 kcal/mol

**Q.** And the denaturant m value (pH 9)?
**A.** 1.98 kcal/mol/M

**Q.** What about the “denaturant midpoint” value (pH 9) of the same variant?
**A.** 4.47 M

**Q.** And the unfolding free energy (pH 9)?
**A.** 8.75 kcal/mol

**Q.** For W141Y, which “ddG of mutation (higher = less stable)” value (pH 5.8) is on record?
**A.** 1.27 kcal/mol

**Q.** What about the denaturant m value (pH 5.8) of the same variant?
**A.** 1.98 kcal/mol/M

**Q.** And the “denaturant midpoint” value (pH 5.8)?
**A.** 4.96 M

**Q.** What about the unfolding free energy (pH 5.8) of the same variant?
**A.** 9.73 kcal/mol

**Q.** What about the “ddG of mutation (higher = less stable)” value (pH 9) of the same variant?
**A.** 0.99 kcal/mol

**Q.** What about the denaturant m value (pH 9) of the same variant?
**A.** 2 kcal/mol/M

**Q.** What about the “denaturant midpoint” value (pH 9) of the same variant?
**A.** 4.29 M

**Q.** What about the unfolding free energy (pH 9) of the same variant?
**A.** 8.42 kcal/mol
